The format of series [1] is in vitro ADME, rabbit. The settings on record: not told. How it is done: Dutch-belted rabbits (Pine Acres Rabbitry, Vermont, Mass.), each weighing 2-3 kg, were anesthetized with intramuscular 40 mg/kg ketamine (Abbott, N. Chicago, Ill.) and 10 mg/kg xylazine (Bayer, Shawnee Mission, Kans.). Scleral thickness was measured using a RK-5000 ultrasound pachymeter (KMI Surgical Products, West Chester, Pa.). The eyes were enucleated immediately […] sacrifice and immersed in Unisol (Alcon, Ft. Worth, Tex.) for 10 minutes or less. The adherent muscles were excised and episcleral tissue was removed with a sterile gauze sponge. Areas free of nerve and vessel emissaries were used to obtain 7×12 mm slices of sclera under microscopic caliper guidance. Each piece of sclera was used on the day of isolation.
A 5×10 mm window, 2 mm from the bottom, was created on one face of a spectrophotometry polystyrene cuvette (Sigma, St. Louis, Mo.) using a Bridgeport vertical milling machine (Bridgeport, Bridgeport, Conn.), and a piece of sclera was blotted dry and placed over this window without stretching so as not to induce asymmetric stresses. A small amount of cyanoacrylate tissue adhesive (Ellman International, Hewlett, N.Y.) was applied to the entire boundary of the tissue rim to seal its cut surface to the cuvette and prevent leakage around the sclera, and a second identical cuvette was aligned with the first cuvette and glued in place over the tissue. After the glue polymerized, within 3 to 4 minutes, the cuvette facing the “orbital” surface of the sclera was filled with Unisol. The apparatus was discarded if leakage into the “uveal” chamber was observed. Unisol was replaced with diffusion medium (see below) and the apparatus was incubated at 37° C. in 5% CO2 atmosphere for 1 hour to restore normal hydration and temperature.
Hanks' balanced salt solution without phenol red, containing 1% glutamine-penicillin and streptomycin, tetracycline (48 μg/ml), and aprotinin (1.5 μg/ml) (all from Sigma), was used as the diffusion medium. Tetracycline and aprotinin were excluded from the medium for certain experiments with FITC-BSA to evaluate the effect of these proteolysis inhibitors on scleral permeability. The pH of all solutions ranged from 7.41 to 7.45.
Fluorescein isothiocyanate (FITC) conjugated dextrans ranging in molecular weight from 4 kDa to 150 kDa, FITC-bovine serum albumin (BSA), FITC-rabbit IgG (all from Sigma), rhodamine-conjugated dextran of molecular weight 70 kDa (Molecular Probes, Eugene, Oreg.), and sodium fluorescein (Akorn, Abita Springs, La.) were studied. At least 5 experiments were performed on each compound. […] Samples were protected from light at all times before fluorescence measurements. […]

The conditions of series [2]: Stokes-Einstein radius; cited from earlier work.
Series [3] in a line: Protein precipitation with trichloroacetic acid to test FITC linkage. More on the design: species or system rabbit. The conditions noted are these: supernatant fluorescence.

Regarding `O=C([O-])c1ccccc1-c1c2ccc(=O)cc-2oc2cc([O-])ccc12.[Na+].[Na+]` [Sodium fluorescein, sodium fluorescein], in series [1], the Permeability coefficient is on record as 76.3±24.1 ×10^−6 cm/s and the “Permeability coefficient (mean ± sd)” value was 84.5±16.1 ×10^−6 cm/s. The Molecular radius in series [2] is recorded as 0.5 nm.

For “FITC-BSA: Fluorescein isothiocyanate conjugated bovine serum albumin (Sigma)”, the “dissociation of the FITC conjugate after diffusion through sclera” value in series [3] was “no significant dissociation”. For the same compound, in series [1], the Permeability coefficient is 5.21±1.85 ×10^−6 cm/s and the “Permeability coefficient (mean ± sd)” value was 5.49±2.12 ×10^−6 cm/s. The Molecular radius in series [2] was 3.62 nm.

The values are drawn from US20050208103A1, “Targeted transscleral controlled release drug delivery to the retina and choroid” (priority 1999, published 2005).
